From patent publication US20250027068 come the findings set out here.

Where a chain is given by its changes, count along the chain named.

B1: PRT-541 (protein)
chain: MANQEIRYSKNENPNVTIKWVHGIGEPTQAEKEKIEFWWYETTTTKFFNNRKVDHLGDGNQCWAKTDSNMLHWWFVQNEENINQYIAKKNITGKINFNGEQMFDVKEGIDDNQEKEKSYIANTFRTKKAHNLSTKHKGDYIINGLSWYLYGLNNFKIAHGPTPVKKKPKFYGPALFKDVFSRGDGNTPIIVETDFKEYTKKEFEDTLSAALDSKKAIGINIYGSNVDYQHAITLWGAAFDEEENIIAIYVVDNNFKFENRIFPYGIWYQKEGRPYLFNYEINSFVKNRYVGEVTTLDKGEAQWQETNLEHHHHHH
B2: PRT-528 (protein)
chain: MANQEIRYSEETPKTITSVWTKGVTPPTDFIQNEDVLHAPYIANQGWYDITKTFNGKDDLLCGAATAGNMLHWWFDQNKEEIENYLKKHPEKQKINFNGEQMFDVKEAIDTKDSQTDSALFEYFKDKAFPNLSTKHLGVMPDLVLDMFINGYYLSLGKHGPTPVKRGTKDPRGGIFDAVFTRGDQSKLLTARHDFKEKTLNEISDLIKQELTEGKALALSHTYANVRINHVINLWGADFNSEGNLEAIYVTDSDSNASIGMKKYYVGVNAAGKVAISAKEIEGDNIGAQVLGLFTLSTGQDIWEQTNLEHHHHHH
B3: PRT-575 (protein)
chain: MANQEIRYSEETPKTITSVWTKGVTPPTDFIYNEDVLHAPYIANQGWYDITKTFNGKDDLLCGAATAGNMLHWWFDQNKEQIERYLKKHPEKQKINFNGEQMFDVKEAIDTKDSQTNSKLFEYFKDKAFPYLSTKHLGVFPDHVIDMFINGYRLSLTNHGPTPVKEQTKDPRGGIFDAVFTRGDQSKLLTSRHDFKEKTLKEISDLIKQELTEGKALGLSHTYANVRINHVINLWGADFDAEGNLEAIYVTDSDSNASIGMKKYYVGVNSAGKVAISAKEIEGDNIGAQVLGLFTLSTGKDIWEQTNLEHHHHHH
B4: PRT-580 (protein)
chain: B3 chain with Y32K, L37F, I42V, Q81E, E166R, Q167G, T212Q, A241S, G283D
B5: PRT-561 (protein)
chain: B3 chain with K14S, D29Q, L37F, R84N, N117D, E122N, E166R, K201N, K300Q, E304Q
B6: PRT-574 (protein)
chain: B3 chain with K201N
B7: PRT-255 (protein)
chain: MVTSVWTKGVTPPTNFTYGEDVLHAPYVANQGWYDITKTFNGKDDLLCGAATAGNMLHWWFDQNKEQIENYLKKHPEKQKINFNGEQMFDVKEAIDTKDSQLDSKLFEYFLEKAFPNLSTKHLGVFPDHVIDMFINGYRLSLLNHGPTPVKRGSKDPRGGIFDAVFTRGDQSKLLTNRHDFKEKTLKEISDLIKQELTEGKALGISHTYANVGINHVINLWGADFDAEGNLEAIAVTDSDSNASIGMKKYFVGVNSSGKVAISAKEIEEDNIGAQVLGLFTLSTGQDIWNQTN
B8: PRT-263 (protein)
chain: B7 chain with T39L, D45N, M88L, P157K, D170V, V212G, G213R, S241T
B9: PRT-556 (protein)
chain: MANQEIRYSKAKPKVITSVWTKGVTPPTQFTYNEDVFHAPYLPNQGWYDITKTFNGKDDLLCGAATAGNMLHWWFDQNKEQIERYLKEHPEKQKINFNGEQMFDVKEAIDTKDSQTNSKLFNYFKDKAFPYLSTKHLGVFPDHVIDMFINGYRLSLTNHGPTPVKEQNKDPRGGIFDDVFTRGDQSKLLTSRHDFKEKTLKEISDLIKQELKEGKALGLSHTYANVRINHVINLWGADFDAEGNLVAIYVTDSDSNASIGMKKYYVGVNSAGKVAISAKEIEDDNIGAQVLGLFTLSTGKDIWEKTNLEHHHHHH
B10: PRT-567 (protein)
chain: MANQEIRYSEETPSTITSVWTKGVTPPTDFIQNEDVLHAPYIANQGWYDITKTFNGKDDLLCGAATAGNMLHWWFDQNKEQIENYLKKHPEKQKINFNGEQMFDVKEAIDTKDSQTDSALFEYFKDKAFPYLSTKHLGVFPDHVIDMFINGYRLSLTNHGPTPVKRGTKDPRGGIFDAVFTRGDQSKLLTSRHDFKEKTLNEISDLIKQELTEGKALGLSHTYANVRINHVINLWGADFNAEGNLEAIYVTDSDSNASIGMKKYYVGVNSAGKVAISAKEIEGDNIGAQVLGLFTLSTGQDIWNQTNLEHHHHHH
B11: PRT-599 (protein)
chain: B10 chain with E282K
B12: PRT-573 (protein)
chain: B10 chain with D29Q, E122S, G167Q, D205Q, N304Q
B13: PRT-247 (protein)
chain: MVTSVWTKGVTPPANFTQGEDVFHAPYVANQGWYDITKLFNGKDDLLCGAATAGNMLHWWFDQNKDQIKRYLEEHPEKQKINFNGEQMFDVKEAIDTKNHQLDSKLFEYFLEKAFPYLSTKHLGVFPDHVIDMFINGYRLSLTNHGPTPVKEGSKDPRGGIFDAVFTRGDQSKLLTSRHDFKEKNLKEISDLIKKELTEGKALGLSHTYANVRINHVINLWGADFDSNGNLKAIAVTDSDSNASIGMKKYFVGVNSSGKVAISAKEIKEDNIGAQVLGLFTLSTGQDSWNQTN
B14: PRT-538 (protein)
chain: MANQEIRYSSDSEWANKKVWVYGITPPEEGAWKYSTYYLPWKKEYGWYDCNKRNPTADGMMCWAATASNLLHWWIAQNKEYIDLYGDKYKGPDKINFNGEQMFDVKEYIDPLDKPQESDIFQCFIDKSFADLSTKHEAGYGDEGINWFIHGIIPSSPAHGPTPVKLRKPYNPAGYFKDVFPRGDGVKLLSNNGDFKELGKERFNETIKDALKNKKGIGLSIGPVNVRSGHVVTMWGAEFDENGDVSYIYIADNNDRWGVGCIRYQIVYEEGGTYTCYKTEIINEDRPIPINRLVTLELGEEYWKQTNLEHHHHHH
B15: PRT-271 (protein)
chain: MVTSVWTKGVTPPTDFIYGEDVLHAPYKAGQGWYDITKLFNGKDDLLCGAATAGNMLHWWFDQNKEQIENYLKKHPEKQKINFNGEQMFDVKEAIDTKDSQLDSKLFDYFKEKAFPYLSTKHLGVFPDHVIDMFINGYRLSLTNHGPTPVKRGSKDPRGGIFDAVFTRGDQSKLLTNRHDLKNKTLKEISDLIKQELTEGKALGISHTYANVRINHVINLWGADFDAEGNLEAIYVTDSDSNPSIGMKKYFVGVNSSGKVAISAKEIEEDNIGAQVLGLFTLSTGQDIWNQTN

The target in the series is pooled human IgG (human IgG1, 2, 3 and 4).
For B1, the Enzyme Activity Endpoint Assay: Fab′2 is 0 ng/µL, the Enzyme Activity Endpoint Assay: Fc is 0 ng/µL, the Enzyme Activity Endpoint Assay: IgG is 854 ng/µL and the Enzyme Activity Endpoint Assay: scIgG was found to be 3 ng/µL.
Consider B2, for which the Enzyme Activity Endpoint Assay: Fab′2 came to 14 ng/µL, the Enzyme Activity Endpoint Assay: Fc is 114 ng/µL, the Enzyme Activity Endpoint Assay: IgG turned out to be 354 ng/µL and the Enzyme Activity Endpoint Assay: scIgG turned out to be 691 ng/µL.
With B3, the Enzyme Activity Endpoint Assay: Fab′2 turned out to be 254 ng/µL, the Enzyme Activity Endpoint Assay: Fc amounted to 309 ng/µL, the Enzyme Activity Endpoint Assay: IgG came to 94 ng/µL and the Enzyme Activity Endpoint Assay: scIgG was found to be 607 ng/µL.
The matching figures for B4: 566 ng/µL, 282 ng/µL, 0 ng/µL and 0 ng/µL.
The matching figures for B5: 606 ng/µL, 405 ng/µL, 0 ng/µL and 0 ng/µL.
B6 came in with an Enzyme Activity Endpoint Assay: Fab′2 of 660 ng/µL, an Enzyme Activity Endpoint Assay: Fc of 357 ng/µL, an Enzyme Activity Endpoint Assay: IgG of 0 ng/µL and an Enzyme Activity Endpoint Assay: scIgG of 227 ng/µL.
In the same order, the values of B7 are 58 ng/µL, 178 ng/µL, 75 ng/µL and 525 ng/µL.
In the same order, the values of B8 are 0 ng/µL, 27 ng/µL, 986 ng/µL and 0 ng/µL.
The matching figures for B9: 570 ng/µL, 351 ng/µL, 16 ng/µL and 200 ng/µL.
For the protein B10, the Enzyme Activity Endpoint Assay: Fab′2 is 385 ng/µL, the Enzyme Activity Endpoint Assay: Fc turned out to be 297 ng/µL, the Enzyme Activity Endpoint Assay: IgG was 65 ng/µL and the Enzyme Activity Endpoint Assay: scIgG was 372 ng/µL.
Protein B11 had an Enzyme Activity Endpoint Assay: Fab′2 of 930 ng/µL, an Enzyme Activity Endpoint Assay: Fc of 310 ng/µL, an Enzyme Activity Endpoint Assay: IgG of 0 ng/µL and an Enzyme Activity Endpoint Assay: scIgG of 0 ng/µL.
In turn, B12 displayed an Enzyme Activity Endpoint Assay: Fab′2 of 759 ng/µL, an Enzyme Activity Endpoint Assay: Fc of 409 ng/µL, an Enzyme Activity Endpoint Assay: IgG of 0 ng/µL and an Enzyme Activity Endpoint Assay: scIgG of 0 ng/µL.
B13 had an Enzyme Activity Endpoint Assay: Fab′2 of 0 ng/µL, an Enzyme Activity Endpoint Assay: Fc of 81 ng/µL, an Enzyme Activity Endpoint Assay: IgG of 308 ng/µL and an Enzyme Activity Endpoint Assay: scIgG of 279 ng/µL.
In the same order, the values of B14 are 5 ng/µL, 0 ng/µL, 1160 ng/µL and 0 ng/µL.
B15 gave an Enzyme Activity Endpoint Assay: Fab′2 of 563 ng/µL, an Enzyme Activity Endpoint Assay: Fc of 322 ng/µL, an Enzyme Activity Endpoint Assay: IgG of 0 ng/µL and an Enzyme Activity Endpoint Assay: scIgG of 0 ng/µL.
